Patent publication US20260365740 (published 2026)
Residue numbers refer to the chain shown, from its start. Read-outs that look alike come from different tables or passages of the source. Each block holds one binder with its values, some of them ahead of it.

How the values were obtained:
human TrkA ECD [1] = target: T1, human TrkA ECD (human); assay: BLI
T1 chain: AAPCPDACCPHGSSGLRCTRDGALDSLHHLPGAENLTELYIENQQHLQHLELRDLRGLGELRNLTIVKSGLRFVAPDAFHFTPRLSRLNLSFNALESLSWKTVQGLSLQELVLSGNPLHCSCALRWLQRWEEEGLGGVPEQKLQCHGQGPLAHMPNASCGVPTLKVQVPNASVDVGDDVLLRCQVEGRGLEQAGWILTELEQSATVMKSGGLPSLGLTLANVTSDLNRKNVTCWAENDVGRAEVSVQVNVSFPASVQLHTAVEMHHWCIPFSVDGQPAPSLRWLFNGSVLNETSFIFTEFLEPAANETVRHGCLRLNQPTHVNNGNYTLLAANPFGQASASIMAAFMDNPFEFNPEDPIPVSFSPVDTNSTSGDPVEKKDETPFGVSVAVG

human TrkA ECD [2] = target: T1, human TrkA ECD; assay: BLI
TrkA (cell surface) = TrkA (cell surface) (human); assay: FACS
Sequence of TrkA (cell surface) (human) (B2R6T5 whole entry): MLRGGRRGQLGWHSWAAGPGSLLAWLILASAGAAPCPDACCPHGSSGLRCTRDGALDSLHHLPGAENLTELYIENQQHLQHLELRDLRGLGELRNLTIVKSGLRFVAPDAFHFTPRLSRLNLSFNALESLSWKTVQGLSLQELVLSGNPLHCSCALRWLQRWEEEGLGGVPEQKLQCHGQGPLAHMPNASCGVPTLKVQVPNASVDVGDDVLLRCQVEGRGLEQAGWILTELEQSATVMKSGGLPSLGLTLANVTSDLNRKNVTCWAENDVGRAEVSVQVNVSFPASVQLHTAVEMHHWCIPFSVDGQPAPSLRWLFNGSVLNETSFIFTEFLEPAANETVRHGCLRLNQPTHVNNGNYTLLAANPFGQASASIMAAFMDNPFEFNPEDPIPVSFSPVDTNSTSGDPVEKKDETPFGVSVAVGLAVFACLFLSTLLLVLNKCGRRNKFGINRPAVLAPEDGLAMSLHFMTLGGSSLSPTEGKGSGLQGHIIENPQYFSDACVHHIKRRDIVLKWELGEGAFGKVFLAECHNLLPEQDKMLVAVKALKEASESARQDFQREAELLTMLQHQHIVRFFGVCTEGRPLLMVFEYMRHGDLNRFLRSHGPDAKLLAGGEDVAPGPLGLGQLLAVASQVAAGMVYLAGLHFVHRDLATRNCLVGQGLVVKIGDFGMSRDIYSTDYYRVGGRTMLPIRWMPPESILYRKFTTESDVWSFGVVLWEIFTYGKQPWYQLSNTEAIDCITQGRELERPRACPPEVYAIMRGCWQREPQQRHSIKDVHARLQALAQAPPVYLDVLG

- Kd (human TrkA ECD [1]): 0.771 nM
B1: Chi70D3A6 (antibody, V domains shown)
VH: EVKLVESGGDLVKPGGSLKLSCTASGFTFTYYAMSWVRQTPEKRLEWVATISGGGDTYYLDSVKGRFTISRDNAGNILYLQMSSLRSEDTAMYYCARGVGGNFFDYWGQGSTLTVSS
VL: QIVLTQSPAIMSASPGEKVTISCSASSSVSYMYWYQQKPGSSPKPFIYRTSNLASGVPSRFSGSGSGTSYSLTVSTMEAEDAATYYCQLYHSYTPITFGAGTKLELK

- Kd (human TrkA ECD [1]): 1.3 nM
B2: Chi99H4D5 (antibody, V domains shown)
VH: B1 VH with D10G, T23A, T30S, M34I, V37L, T50S, G54N, G75R, F103Y, S111T
VL: B1 VL with Q1D, L4M, F46L, S59A, V74I, L89Q, E105D

- Kd (human TrkA ECD [2]): 0.591 nM
- EC50 (TrkA (cell surface)): ~0.289 nM
B3: Hu70D3A6-V12 (antibody, V domains shown)
VH: EVQLVESGGGLVKPGGSLRLSCAASGFTFTYYAMSWVRQAPGKGLEWVSSISGGGDVYYADSVKGRFTISRDNAKNTLYLQMNSLRAEDTAVYYCARGVGGNYFDYWGQGTLVTVSS
VL: DIQMTQSPSSLSASVGDRVTITCSASSSVSYMYWYQQKPGKAPKPLIYRTSNLASGVPSRFSGSGSGTDFTLTISSLQPEDFATYYCQLYHSYTPITFGQGTKLEIK

- Kd (human TrkA ECD [2]): 0.753 nM
- EC50 (TrkA (cell surface)): ~0.362 nM
B4: Hu99H4D5-V6 (antibody, V domains shown)
VH: B3 VH with T30S, M34I
VL: B3 VL with L89Q
